Experimental data published in patent publication US20210032312A1 (Janssen / Centocor, published 2021).
Positions count from the first letter of the chain named. Values belong to the binder of their own block, whether it stands above or below them.

Columns and labels:
[1] = target: T1, human CD8 alpha (CD8A) on primary human CD8+ T cells (human, UniProt P01732 22-235); assay: flow cytometry, human CD8+ T cells, 2 uM FN3
T1 construct: whole, on cells; also called hCD8A

[2] = target: T1, human CD8 alpha (CD8A) on primary human …; assay: flow cytometry, human CD8+ T cells, 0.2 uM FN3
[3] = target: T2, cynomolgus monkey CD8A on primary cynomolgus monkey CD8+ T cells (cynomolgus monkey, UniProt P01732 23-235 (human entry)); assay: flow cytometry, cyno CD8+ T cells, 2 uM FN3
T2 construct: also called Cyno CD8alpha

In house human CD8A-Fc = target: T3, In house human CD8A-Fc (human, UniProt P01732 22-182, limits assumed); assay: SPR (ProteOn), captured hCD8A-Fc
T3 construct: Captured on goat anti-human Fc on a ProteOn GLC chip; also called hCD8A-Fc; recombinant human CD8 alpha; not shown: linker with flag (and polyhistidine) tag and Fc of human IgG1

[4] = target: T2, cynomolgus monkey CD8A on primary …; assay: flow cytometry, cyno CD8+ T cells, 0.2 uM FN3

T1 sequence (P01732 22-235): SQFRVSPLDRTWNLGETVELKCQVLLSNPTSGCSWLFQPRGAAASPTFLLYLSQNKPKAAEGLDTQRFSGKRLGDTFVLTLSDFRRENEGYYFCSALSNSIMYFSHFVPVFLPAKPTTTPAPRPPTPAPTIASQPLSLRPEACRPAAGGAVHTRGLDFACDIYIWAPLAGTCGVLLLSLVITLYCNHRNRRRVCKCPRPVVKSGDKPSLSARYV
T3 sequence (P01732 22-182 limits assumed): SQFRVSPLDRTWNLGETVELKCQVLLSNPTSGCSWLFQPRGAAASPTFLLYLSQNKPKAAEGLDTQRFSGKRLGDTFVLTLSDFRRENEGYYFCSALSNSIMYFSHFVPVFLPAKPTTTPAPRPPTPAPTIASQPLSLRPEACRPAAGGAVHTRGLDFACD
T2 sequence (P01732 other isoform, or with tags, fused parts or gaps limits assumed): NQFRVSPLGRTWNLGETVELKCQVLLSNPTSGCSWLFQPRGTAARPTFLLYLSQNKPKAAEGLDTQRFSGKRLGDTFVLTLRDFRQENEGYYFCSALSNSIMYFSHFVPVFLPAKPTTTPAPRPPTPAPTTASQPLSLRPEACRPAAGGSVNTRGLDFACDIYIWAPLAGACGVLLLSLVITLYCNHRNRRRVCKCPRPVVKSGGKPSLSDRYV

B1: P282FR9P1361_F7 (designed binder)
chain: LPAPKNLVVSRVTEDSARLSWTAPDAAFDSFPIWYREYATGEAIVLTVPGSERSYDLTGLKPGTEYDVVITGVKGGYPSYPLSAIFTT
notes: FN3 domain
- Human T-cell Binding 2 uM (MFI) [1]: 7000 MFI
- Human T-cell Binding 0.2 uM (MFI) [2]: 1110 MFI
- Cyno T-cell Binding 2 uM (MFI) [3]: 1700 MFI
- koff (In house human CD8A-Fc): 0.00114 s⁻¹
- Cyno T-cell Binding 0.2 uM (MFI) [4]: 353 MFI

B2: P282FR9P1361_H5 (designed binder)
chain: LPAPKNLVVSRVTEDSARLSWTAPDAAFDSFDIWYAEYGYPGEAIVLTVPGSERSYDLTGLKPGTEYDVAISGVKGGPRSYPLSAIFTT
notes: FN3 domain
- Human T-cell Binding 2 uM (MFI) [1]: 5730 MFI
- Human T-cell Binding 0.2 uM (MFI) [2]: 698 MFI
- Cyno T-cell Binding 2 uM (MFI) [3]: 11800 MFI
- koff (In house human CD8A-Fc): 0.00577 s⁻¹
- Cyno T-cell Binding 0.2 uM (MFI) [4]: 637 MFI

B4: P282FR9P1361_D3 (designed binder)
chain: B2 chain with K62N
notes: FN3 domain
- Human T-cell Binding 2 uM (MFI) [1]: 6880 MFI
- Human T-cell Binding 0.2 uM (MFI) [2]: 1030 MFI
- Cyno T-cell Binding 2 uM (MFI) [3]: 14800 MFI
- koff (In house human CD8A-Fc): 0.00502 s⁻¹
- Cyno T-cell Binding 0.2 uM (MFI) [4]: 764 MFI

B5: P282FR9P1361_F11 (designed binder)
chain: B2 chain with D32G, A36R, Y40G, P41S, S72W, P78V
notes: FN3 domain
- Human T-cell Binding 2 uM (MFI) [1]: 2190 MFI
- Human T-cell Binding 0.2 uM (MFI) [2]: 382 MFI
- Cyno T-cell Binding 2 uM (MFI) [3]: 2290 MFI
- koff (In house human CD8A-Fc): 0.00213 s⁻¹
- Cyno T-cell Binding 0.2 uM (MFI) [4]: 384 MFI

B7: P282FR9P1361_F1 (designed binder)
chain: B2 chain with D32G, P41S, S72W, P78V
notes: FN3 domain
- Human T-cell Binding 2 uM (MFI) [1]: 5500 MFI
- Human T-cell Binding 0.2 uM (MFI) [2]: 801 MFI
- Cyno T-cell Binding 2 uM (MFI) [3]: 9870 MFI
- koff (In house human CD8A-Fc): 0.00126 s⁻¹
- Cyno T-cell Binding 0.2 uM (MFI) [4]: 1390 MFI

B9: P282FR9P1361_A3 (designed binder)
chain: B2 chain with S72V, P78N
notes: FN3 domain
- Human T-cell Binding 2 uM (MFI) [1]: 7670 MFI
- Human T-cell Binding 0.2 uM (MFI) [2]: 1660 MFI
- Cyno T-cell Binding 2 uM (MFI) [3]: 8480 MFI
- koff (In house human CD8A-Fc): 0.000757 s⁻¹
- Cyno T-cell Binding 0.2 uM (MFI) [4]: 740 MFI

B10: P282FR9P1361_F2 (designed binder)
chain: B2 chain with V74I
notes: FN3 domain
- Human T-cell Binding 2 uM (MFI) [1]: 4610 MFI
- Human T-cell Binding 0.2 uM (MFI) [2]: 498 MFI
- Cyno T-cell Binding 2 uM (MFI) [3]: 10900 MFI
- koff (In house human CD8A-Fc): 0.00496 s⁻¹
- Cyno T-cell Binding 0.2 uM (MFI) [4]: 462 MFI

B11: P282FR9P1361_A5 (designed binder)
chain: LPAPKNLVVSRVTEDSARLSWTAPDAAFDSFGILYYEPVDSGEAITLPVPGSERSYDLTGLKPGTEYWVVITGVKGGAPSTPLGAIFTT
notes: FN3 domain
- Human T-cell Binding 2 uM (MFI) [1]: 32800 MFI
- Human T-cell Binding 0.2 uM (MFI) [2]: 5210 MFI
- Cyno T-cell Binding 2 uM (MFI) [3]: 63500 MFI
- koff (In house human CD8A-Fc): 0.000192 s⁻¹
- Cyno T-cell Binding 0.2 uM (MFI) [4]: 8110 MFI

The next lines start with the values.

- Human T-cell Binding 2 uM (MFI) [1]: 13100 MFI
- Human T-cell Binding 0.2 uM (MFI) [2]: 3740 MFI
- Cyno T-cell Binding 2 uM (MFI) [3]: 26300 MFI
- koff (In house human CD8A-Fc): 0.000317 s⁻¹
- Cyno T-cell Binding 0.2 uM (MFI) [4]: 2500 MFI
B3: P282FR9P1361_H4 (designed binder)
chain: B2 chain with D32G, P41S, S72Y, P78S, R79P
notes: FN3 domain

- Human T-cell Binding 2 uM (MFI) [1]: 5160 MFI
- Human T-cell Binding 0.2 uM (MFI) [2]: 674 MFI
- Cyno T-cell Binding 2 uM (MFI) [3]: 9710 MFI
- koff (In house human CD8A-Fc): 0.0107 s⁻¹
- Cyno T-cell Binding 0.2 uM (MFI) [4]: 513 MFI
B6: P282FR9P1361_F3 (designed binder)
chain: B2 chain with V74A
notes: FN3 domain

- Human T-cell Binding 2 uM (MFI) [1]: 8540 MFI
- Human T-cell Binding 0.2 uM (MFI) [2]: 1580 MFI
- Cyno T-cell Binding 2 uM (MFI) [3]: 11600 MFI
- koff (In house human CD8A-Fc): 0.00224 s⁻¹
- Cyno T-cell Binding 0.2 uM (MFI) [4]: 896 MFI
B8: P282FR9P1361_C7 (designed binder)
chain: B2 chain with D32G, A36H, Y40G, P41D, S72W, P78D, R79V
notes: FN3 domain

- Human T-cell Binding 2 uM (MFI) [1]: 25400 MFI
- Human T-cell Binding 0.2 uM (MFI) [2]: 5870 MFI
- Cyno T-cell Binding 2 uM (MFI) [3]: 69700 MFI
- koff (In house human CD8A-Fc): 0.000221 s⁻¹
- Cyno T-cell Binding 0.2 uM (MFI) [4]: 9920 MFI
B12: P282ER9P1360_G7 (designed binder)
chain: B11 chain with F87L
notes: FN3 domain

- Human T-cell Binding 2 uM (MFI) [1]: 19200 MFI
- Human T-cell Binding 0.2 uM (MFI) [2]: 3460 MFI
- Cyno T-cell Binding 2 uM (MFI) [3]: 33400 MFI
- koff (In house human CD8A-Fc): 0.00107 s⁻¹
- Cyno T-cell Binding 0.2 uM (MFI) [4]: 3900 MFI
B13: P282ER9P1360_C4 (designed binder)
chain: B11 chain with L34T, V39N, D40H, S41G, T46S, P48S, L58P
notes: FN3 domain

- Human T-cell Binding 2 uM (MFI) [1]: 25900 MFI
- Human T-cell Binding 0.2 uM (MFI) [2]: 5080 MFI
- Cyno T-cell Binding 2 uM (MFI) [3]: 52800 MFI
- koff (In house human CD8A-Fc): 0.000175 s⁻¹
- Cyno T-cell Binding 0.2 uM (MFI) [4]: 7580 MFI
B14: P282ER9P1360_C6 (designed binder)
chain: B11 chain with P2S, V49I
notes: FN3 domain
